Usually Kd stands for a measure of binding affinity in units of concentration. Read a high Kd as lower affinity.

The values below come from PMC8016844, “Grb2 binding induces phosphorylation-independent activation of Shp2” (Communications Biology, 2021).

This assay concerns the target T1, Shp2 N-terminal SH2 domain (Shp2_(NSH2)) (UniProt Q06124 6-102).
T1 construct: Shp2 (PTPN11), N-terminal SH2 domain; Atto 488 labelled in MST; uniformly 15N-labelled in the NMR titration; Perturbed residues up to Y100 are named, so the construct reaches at least residue 100; also called Shp2-NSH2 domain; source: E. coli BL21 (DE3), pET28b, purified (Talon buffers, Superdex SD75)
T1 sequence (looked up): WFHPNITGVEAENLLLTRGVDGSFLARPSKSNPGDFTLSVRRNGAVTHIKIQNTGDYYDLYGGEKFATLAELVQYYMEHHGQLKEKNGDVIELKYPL
The experiment in a line: MST; target protein labelled with Atto 488 NHS ester, 100 nM; unlabelled ligand serially diluted; Monolith NT.115; 25 °C; 20 mM HEPES pH 7.5, 150 mM NaCl, 0.5 mM TCEP, 0.005% Tween 20. The conditions noted are these: both partners purified.

B1: isolated NSH3 domain of Grb2 (Grb2_(NSH3)) (domain or fragment)
chain: MEAIAKYDFKATADDELSFKRGDILKVLNEECDQNWYKAELNGKDGFIPKNYIEMKPH
As to B1, binding was put at a Kd of 422 ± 21.5 µM.
